From publication doi:10.1101/208041
Positions count from the first letter of the chain named. Like-named read-outs stand apart in the source and are kept apart here.

How the values were obtained:
Test in all cases: filter binding
MpAgo WT [1] = molecular target: T1, MpAgo WT (Marinitoga piezophila, UniProt H2J4R4 1-639); settings: biotinylated
T1 sequence: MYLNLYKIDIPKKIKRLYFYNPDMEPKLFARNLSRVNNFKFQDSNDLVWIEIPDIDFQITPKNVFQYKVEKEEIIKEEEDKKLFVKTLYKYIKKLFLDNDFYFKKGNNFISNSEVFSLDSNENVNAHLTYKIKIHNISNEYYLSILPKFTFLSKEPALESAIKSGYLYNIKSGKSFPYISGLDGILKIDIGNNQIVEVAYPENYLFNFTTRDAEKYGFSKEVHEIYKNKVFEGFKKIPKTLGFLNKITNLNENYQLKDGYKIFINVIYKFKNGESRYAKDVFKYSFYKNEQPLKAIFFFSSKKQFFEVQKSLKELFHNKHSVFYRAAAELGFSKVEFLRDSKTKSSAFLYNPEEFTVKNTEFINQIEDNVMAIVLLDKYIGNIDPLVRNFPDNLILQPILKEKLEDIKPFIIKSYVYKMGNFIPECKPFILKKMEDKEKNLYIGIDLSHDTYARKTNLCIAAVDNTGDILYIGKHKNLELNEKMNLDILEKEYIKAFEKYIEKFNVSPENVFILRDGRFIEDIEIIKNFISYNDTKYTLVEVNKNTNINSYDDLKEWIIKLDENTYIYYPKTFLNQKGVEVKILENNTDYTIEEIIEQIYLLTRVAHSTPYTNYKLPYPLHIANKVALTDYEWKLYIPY

MpAgo WT [2] = molecular target: T1, MpAgo WT
MpAgo WT [3] = molecular target: T1, MpAgo WT; remark: listed apart in the source
[4] = molecular target: T2, dMpAgo (catalytically inactive MpAgo) (Marinitoga piezophila, UniProt H2J4R4 1-639, D446A)
T2 sequence: T1 sequence with D446A

[5] = molecular target: T2, dMpAgo (catalytically inactive MpAgo); remark: listed apart in the source
[6] = molecular target: T2, dMpAgo (catalytically inactive MpAgo); remark: listed apart in the source
[7] = molecular target: T2, dMpAgo (catalytically inactive MpAgo); remark: listed apart in the source
[8] = molecular target: T2, dMpAgo (catalytically inactive MpAgo); remark: listed apart in the source
[9] = molecular target: T2, dMpAgo (catalytically inactive MpAgo); remark: listed apart in the source
[10] = molecular target: T2, dMpAgo (catalytically inactive MpAgo); remark: listed apart in the source
[11] = molecular target: T2, dMpAgo (catalytically inactive MpAgo); remark: listed apart in the source
[12] = molecular target: T2, dMpAgo (catalytically inactive MpAgo); remark: listed apart in the source
[13] = molecular target: T2, dMpAgo (catalytically inactive MpAgo); remark: listed apart in the source
[14] = molecular target: T2, dMpAgo (catalytically inactive MpAgo); remark: listed apart in the source
[15] = molecular target: T2, dMpAgo (catalytically inactive MpAgo); remark: listed apart in the source

33-nt gRNA
Kd (MpAgo WT [1]): 35 nM

GAUACAACCUACUACCUCAUU (ssRNA, 5'-OH) [gRNA 5'-rG]
Kd (MpAgo WT [2]): 52 ± 4 nM
Kd (MpAgo WT [3]): 49 ± 5 nM

B1: BrdU guide / ON target (mixed)
RNA 1: UAUACAACCUACUACCUCAUU
RNA 2: GGACUAUGAUCUAGAUAUUAAUGAGGUAGUAGGUUGUAUCUCAGGAGGUC
modifications: BrdU at guide 1
Kd [4]: 0.193 ± 0.02 nM
Kd [5]: 0.5 ± 0.115 nM
Kd [6]: 0.175 ± 0.023 nM

B2: G6 guide / A target (mixed)
RNA 1: UGCGGGUGCCAUAUGCAACUU
RNA 2: GGCAGCAUUCAACCAUAUGGCAACCGCAUACAGCCAAG
modifications: BrdU at guide 1
Kd [7]: 0.779 ± 0.071 nM

B3: A6 guide / mm1 (mixed)
RNA 1: UGCGGAUGCCAUAUGCAACUU
RNA 2: B2 RNA 2 with A23U, A28U
modifications: BrdU at guide 1
binding result [8]: binds

B4: C6 guide / U target (mixed)
RNA 1: UGCGGCUGCCAUAUGCAACUU
RNA 2: B2 RNA 2 with A23U
modifications: BrdU at guide 1
binding result [9]: binds

B5: C6 guide / G target (mixed)
RNA 1: UGCGGCUGCCAUAUGCAACUU
RNA 2: B2 RNA 2 with A23G
modifications: BrdU at guide 1
binding result [10]: binds

B6: U6 guide / G target (mixed)
RNA 1: UGCGGUUGCCAUAUGCAACUU
RNA 2: B2 RNA 2 with A23G
modifications: BrdU at guide 1
binding signal [11]: 21 fold Kd vs G6 guide/U target

B7: A6 guide / A target (mixed)
RNA 1: UGCGGAUGCCAUAUGCAACUU
RNA 2: B2 RNA 2
modifications: BrdU at guide 1
binding signal [11]: ~10 fold Kd vs I target

B8: G6 guide / C target (mixed)
RNA 1: UGCGGGUGCCAUAUGCAACUU
RNA 2: B2 RNA 2 with A23C
modifications: BrdU at guide 1
binding signal [12]: 13 fold Kd vs C6 guide/G target

B9: C7 guide / A target (mixed)
RNA 1: UAGCGGCUGCCAUAUCCAACU
RNA 2: B2 RNA 2
modifications: BrdU at guide 1
binding signal [13]: ~33 fold Kd vs I target

B10: G6 guide / U target (mixed)
RNA 1: UGCGGGUGCCAUAUGCAACUU
RNA 2: B2 RNA 2 with A23U
modifications: BrdU at guide 1
binding result [14]: binds

B11: A7 guide / C target (mixed)
RNA 1: UAGCGGAUGCCAUAUCCAACU
RNA 2: B2 RNA 2 with A23C
modifications: BrdU at guide 1
binding signal [15]: 47 fold Kd vs C7 guide/A target

B12: U6 guide / U target (mixed)
RNA 1: UGCGGUUGCCAUAUGCAACUU
RNA 2: B2 RNA 2 with A23U
modifications: BrdU at guide 1
binding result [9]: binds

B13: A6 guide / U target (complementary) (mixed)
RNA 1: UGCGGAUGCCAUAUGCAACUU
RNA 2: B2 RNA 2 with A23U
modifications: BrdU at guide 1
binding result [7]: binds

B14: BrdU guide / OFF target (mixed)
RNA 1: UAUACAACCUACUACCUCAUU
RNA 2: GUUAUGUGUGUGAUUAUAUUUGUUCCAGUUCCUGUGUAAUAGACAUGGAA
modifications: BrdU at guide 1
binding result [6]: no binding
